The series addresses EGFP-hTNF-α fusion protein comprising the enterokinase-recognizing sequence, P01375.

Sequence of EGFP-hTNF-α fusion protein comprising the enterokinase-recognizing sequence, P01375 (P01375 other isoform, or with tags, fused parts or gaps): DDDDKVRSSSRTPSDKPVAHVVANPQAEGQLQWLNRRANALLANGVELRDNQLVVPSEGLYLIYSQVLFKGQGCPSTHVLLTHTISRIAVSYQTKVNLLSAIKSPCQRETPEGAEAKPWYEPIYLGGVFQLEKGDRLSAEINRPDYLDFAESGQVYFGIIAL

B1: human enterokinase light chain protein produced in transformed rice suspension cells (protein)
chain: IVGGSNAKEGAWPWVVGLYYGGRLLCGASLVSSDWLVSAAHCVYGRNLEPSKWTAILGLHMKSNLTSPQTVPRLIDEIVINPHYNRRRKDNDIAMMHLEFKVNYTDYIQPICLPEENQVFPPGRNCSIAGWGTVVYQGTTANILQEADVPLLSNERCQQQMPEYNITENMICAGYEEGGIDSCQGDSGGPLMCQENNRWFLAGVTSFGYKCALPNRPGVYARVSRFTEWIQSFLH
As for B1, the endopeptidase activity entry was “exhibited the activity of the human enterokinase light chain protein, i.e., recognizing and cleaving the DDDDK amino acid sequence”.

The record behind these values is US20150020238.
